Test [1] concerns the target T1, human CD40 recombinant protein (Acrobiosystems, CD 0-H5228) (human, UniProt P25942 21-193).
T1 construct: Bought protein
Kind of test: direct ELISA, coated human CD40 1 µg/ml, anti-human Fc-HRP. The procedure: The antibodies were incubated at room temperature for 30 min, and washed 8 times with 0.05% PBS-Tween.
A general note: An ELISA detects its analyte on a solid surface through an enzyme-linked reagent.

Test [2] deals with T2, human CD40 expressed on cells (human, UniProt P25942 21-277). Description: cell-based or functional assay.
The target of test [3] is T2, human CD40 expressed on cells. Description: flow cytometry on 293FT cells expressing human CD40. As to the method:
(§1) Cells expressing Rhesus monkey CD40 and human CD40, respectively, were obtained after 48 h of expression.
(§2) GraphPad Prism 6.0 was used to fit the curves and calculate EC50.
A general note: In flow cytometry, cells or beads pass a laser one at a time.

For test [4], the target named is T3, Rhesus monkey CD40 expressed on 293FT cells (Rhesus monkey (Macaca mulatta), UniProt F6SNI1 21-278).
T3 construct: whole, on cells; also called Rhesus CD40
Description: flow cytometry on 293FT cells expressing Rhesus CD40. The procedure: as §1, §2

For test [5], the target named is T4, human OX40 (Acrobiosystems, OX 0-H5224) (human, UniProt P43489 29-216).
T4 construct: Bought protein
T4 sequence (looked up): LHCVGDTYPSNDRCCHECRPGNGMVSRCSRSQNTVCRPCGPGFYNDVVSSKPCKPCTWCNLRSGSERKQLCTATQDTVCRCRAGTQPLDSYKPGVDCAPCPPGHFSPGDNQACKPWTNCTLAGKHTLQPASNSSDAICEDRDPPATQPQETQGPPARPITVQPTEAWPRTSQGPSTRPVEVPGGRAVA
Description: direct ELISA, coated human OX40 1 µg/ml, anti-human Fc-HRP. The procedure: (§3) PBS solutions containing 1 μg/ml of human OX40 (Acrobiosystems, OX 0-H5224), 4-1BB (Acrobiosystems, 41B-H5227), GITR (Acrobiosystems, GIR-H5228) and CD40 (Acrobiosystems, CD 0-H5228) were coated on the ELISA plates and incubated overnight at 4° C. […] After 30 mins of incubation at room temperature, washing was carried out for 8 times with 0.05% PBS-Tween.

In test [6] the target is T5, human 4-1BB (Acrobiosystems, 41B-H5227) (human, UniProt Q07011 24-186).
T5 construct: Bought protein
Description: direct ELISA, coated human 4-1BB 1 µg/ml, anti-human Fc-HRP. The procedure: as §3

The target of test [7] is T1, human CD40 recombinant protein …. Description: SPR (Biacore T200), antibody captured on Protein A chip, CD40 as analyte. As to the method: The antigen to be tested, i.e. human CD40 recombinant protein (Acrobiosystems, CD 0-H5228) was diluted gradiently with a Running buffer (HBS-EP+, GE) at concentrations of 2 μM, 1 μM, 500 nM, 250 nM, 125 nM, 62.5 nM, 31.25 nM. The above-mentioned CD40 with different concentrations was flowed through the chip on which the antibody was captured at a flow rate of 30 μL/min for 120 s of binding, and then the Running buffer was flowed through the chip at a flow rate of 30 μL/min for 240 s, with the antigen dissociating gradually from the chip on which the antibody was captured. Data processing was performed using BIAevaluation software S200, the necessary software of Biacore T200 instrument and binding constants (Ka), dissociation constants (Kd), and equilibrium dissociation constants (KD) were calculated.

Changes are numbered by the printed parent chain.

Consider 6 molecules from patent US20220324988A1 (NANKAI UNIVERSITY, published 2022).

As usually defined, the EC50 is the concentration that produces a half-maximal response. By Kd is commonly meant the free concentration of one partner at which half of the binding sites on the other are occupied at equilibrium, for simple one-to-one binding. What is called koff is the rate constant with which the complex falls apart. Broadly, the kon is the rate constant with which the complex forms. In general, EC50 (read off the curve) refers to the concentration needed to bring the measured effect to its halfway point.

T1 sequence (P25942 21-193 limits assumed): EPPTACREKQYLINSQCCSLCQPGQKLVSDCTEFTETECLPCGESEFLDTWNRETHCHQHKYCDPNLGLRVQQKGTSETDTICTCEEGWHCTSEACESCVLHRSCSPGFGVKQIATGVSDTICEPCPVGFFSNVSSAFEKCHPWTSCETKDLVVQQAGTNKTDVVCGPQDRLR
T2 sequence (P25942 21-277): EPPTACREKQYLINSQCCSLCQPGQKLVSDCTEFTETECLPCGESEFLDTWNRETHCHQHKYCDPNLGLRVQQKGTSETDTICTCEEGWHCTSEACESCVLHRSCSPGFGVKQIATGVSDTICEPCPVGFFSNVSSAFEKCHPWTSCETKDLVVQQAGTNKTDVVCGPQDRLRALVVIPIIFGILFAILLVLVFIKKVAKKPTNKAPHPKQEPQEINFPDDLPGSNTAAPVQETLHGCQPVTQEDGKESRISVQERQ
T5 sequence (Q07011 24-186): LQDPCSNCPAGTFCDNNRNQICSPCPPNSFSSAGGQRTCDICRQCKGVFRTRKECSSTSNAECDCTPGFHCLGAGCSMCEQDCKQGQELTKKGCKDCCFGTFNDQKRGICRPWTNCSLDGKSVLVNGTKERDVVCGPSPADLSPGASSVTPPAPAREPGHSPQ

B1: HEL (antibody, human IgG1, kappa, V domains shown)
VH: EVQLEQSGAELMKPGASVKISCKATGYTFTTYWIEWIKQRPGHSLEWIGEILPGSDSTYYNEKVKGKVTFTADASSNTAYMQLSSLTSEDSAVYYCARGDGFYVYWGQGTTLTVSS
VL: DIELTQSPATLSVTPGDSVSLSCRASQSISNNLHWYQQKSHESPRLLIKYTSQSMSGIPSRFSGSGSGTDFTLSINSVETEDFGVYFCQQSGSWPRTFGGGTKLDIKR
notes: IgG1 negative control antibody; also called negative control HEL; HEL control antibody
For the molecule B1, the binding result in test [1] was “no binding (tested: 500 nM)”.

B2: NK003-AM-18 (antibody, human IgG1, kappa, V domains shown)
VH: not shown
VL: DVVMTQSPLSLPVTPGESATISCRSSQSLLYSNGYNYLDWYLLKPGQSPQLLIYLGSNRASGVPDRFSGSGSGTDFTLKISRVEAEDVGLYYCMQQLEQPYTFGQGTKLEIKR
As for B2, in test [2], the “EC50 of activation of the NF-kB-GFP+hCD40 reporter cell line, cross-linked with goat anti-human Fc” value is 0.3 nM and the “fold improvement of reporter cell activity against wild type NK003” value was about 10 times.

B3: NK003-AM-18-EP1 (antibody, human IgG1, kappa, V domains shown)
VH: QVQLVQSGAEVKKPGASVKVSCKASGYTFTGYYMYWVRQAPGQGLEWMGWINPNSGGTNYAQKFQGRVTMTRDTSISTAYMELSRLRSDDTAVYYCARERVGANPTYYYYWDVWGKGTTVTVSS
VL: B2 VL
As for B3, the “EC50 of activation of the NF-κB-GFP+hCD40 reporter cell line, cross-linked with goat anti-human Fc” value in test [2] worked out at 0.35 nM.

B4: NK003-AM-9 (antibody, human IgG1, kappa, V domains shown)
VH: not shown
VL: B2 VL with Q95N, Q96G, Q99V
Consider B4, for which, in test [2], the “EC50 of activation of the NF-kB-GFP+hCD40 reporter cell line, cross-linked with goat anti-human Fc” value turned out to be 0.25 nM and the “fold improvement of reporter cell activity against wild type NK003” value was about 10 times.

B5: NK003 (antibody, human IgG1, kappa, V domains shown)
VH: not shown
VL: B2 VL with Q96G, Q99T
notes: also called antibody NK003; wild type NK003
As to B5, in test [2], the “EC50 of activation of the NF-κB-GFP+hCD40 reporter cell line, cross-linked with goat anti-human Fc” value amounted to 2 nM; the “EC50 of apoptosis of Raji cells (CD95 expression, MFI), cross-linked with goat anti-human Fc” value is 2.6 nM; the “EC50 of apoptosis of Ramos cells (CD95 expression, MFI), cross-linked with goat anti-human Fc” value amounted to 3 nM. Besides, it took 10 nM to reach a half-maximal effect in test [3] (EC50). Besides, in test [4], the EC50 is 8 nM. For the same molecule, the binding result in test [5] was “no binding”. In test [6], the binding result is reported as “no binding”. For the same molecule, in test [7], the Kd worked out at 331 nM, the koff worked out at 0.0121 s⁻¹ and the kon was determined as 36700 M⁻¹ s⁻¹.

B6: NK004 (antibody, human IgG1, kappa, V domains shown)
VH: QVQLVESGGGLVQPGRSLRISCAGSGFTFGDSAMHWVRQAPGKGLEWVSGISRNSDTIVYADSVKGRFTISRDNAKNSLYLQMNSLRAEDTALYYCARRSGDHHAMDVWGPGTTVTVSS
VL: ETTLTQSPATLSLSPGERATLSCRASQSVNTYLAWYQQKPGQAPRLLMYDSSSRATGIPDRFSGSGSGTDFTLTISRLEPEDFAVYYCQQYSTVPLTFGGGTKLEIKR
notes: also called antibody NK004
As for B6, the “EC50 of activation of the NF-κB-GFP+hCD40 reporter cell line, with the addition of the secondary antibody” value in test [2] came to 4 nM. The “EC50 (read off the curve)” value in test [1] was about 0.7 nM. In test [7], the Kd was found to be 440 nM, the koff was found to be 0.039 s⁻¹ and the kon amounted to 88700 M⁻¹ s⁻¹.
